Several values for one entry are separate records, joined by “and”; a condition that tells them apart may be missing. Equal values may be shown once.
Target: EGFR 1045+ add-back mutant (pY-null 9Y- backbone with Y1045 added back) (human) (UniProt P00533)
Assay: co-IP

“Cbl, endogenous in NR6 cells (from UniProt P22682 1-913) (enzyme)” was tested, and the fold reduction of association against EGFR-WT was 4 fold and 5 fold.

Source: publication PMC3730230
